Assay results: PMC8184944, “Crystal structures of aconitase X enzymes from bacteria and archaea provide insights into the molecular evolution of the aconitase superfamily” (Communications Biology, 2021)

Legend:
TkAcnX = molecular target: T1, TkAcnX (Thermococcus kodakarensis, UniProt Q5JGJ6+Q5JGJ7); experiment: X-ray co-crystal structure, […] Å; format: binding; conditions: 40 mM MVA5P in co-crystallization; inactive form with [3Fe-4S] cluster; active site between subunits
T1 construct: gene TK1249; both subunits co-expressed in E. coli (pETDuet-1); His6 tag on small subunit cut off with 3C protease; heterodimer ~24 + ~42 kDa
T1 sequence (Q5JGJ7 whole entry): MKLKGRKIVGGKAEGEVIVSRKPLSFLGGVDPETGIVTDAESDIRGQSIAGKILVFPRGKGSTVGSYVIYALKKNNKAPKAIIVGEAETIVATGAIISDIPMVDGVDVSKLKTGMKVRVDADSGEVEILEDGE
T1 sequence (Q5JGJ6 whole entry): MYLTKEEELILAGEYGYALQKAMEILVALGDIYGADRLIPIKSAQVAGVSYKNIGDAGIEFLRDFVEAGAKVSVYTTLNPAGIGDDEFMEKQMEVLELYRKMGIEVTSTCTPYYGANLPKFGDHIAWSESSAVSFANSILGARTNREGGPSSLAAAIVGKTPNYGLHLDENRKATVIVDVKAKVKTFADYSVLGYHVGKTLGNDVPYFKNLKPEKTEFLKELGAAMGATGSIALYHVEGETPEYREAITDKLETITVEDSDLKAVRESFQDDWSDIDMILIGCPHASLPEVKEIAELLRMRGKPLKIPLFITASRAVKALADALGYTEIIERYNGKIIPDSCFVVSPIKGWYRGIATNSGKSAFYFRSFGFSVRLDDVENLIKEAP

[1] = substrate: O=C(O)[C@H]1NCC[C@H]1O; experiment: coupled spectrophotometric assay with NADH-dependent Pyr2C reductase; format: biochemical, Agrobacterium fabrum; conditions: free enzyme; coupling with NADH

Molecule	X-ray co-crystal structure, 1.9 Å (TkAcnX)	Km [1] [µM]	kcat [1] [s⁻¹]
C[C@@](O)(CCOP(=O)(O)O)CC(=O)O [MVA5P]	co-crystallized the wild-type enzyme of TkAcnX (inactive form) with MVA5P	–	–
AtAcnX (Agrobacterium fabrum str. C58) (protein, E. coli BL21(DE3); monomer, ~59 kDa; [2Fe-2S] cluster) MSSAVSTTAAPEARSILAGAAEGKVIATTEALSFWGGVDPATGKVIDVHHPLHGICLTGGVLFMPTSRGSCTGSGVLLDLILTGRAPSALVFCEAEDVLTLGALVAAEMFDKALPVIRLDAETFSRFSRAAHVSIDQNTIKADGVSLAIAPPATAHLDLNDDDRAMLVGRDGIAVRQAMRIIVAMAAQQGASALVDVTQGHIDGCIYASPANLTFAEKMADMGGKVRAPSTMNAISVDKANWRAQGVPEDFGDPAARLADAYVRMGCKPTFTCSPYLLDSAPSAGESIAWAESNAVIFANTVLGARTAKHPDFLDLCIAMTGRAPLSGVYIEENRRPQRIVDVALPAGIDDAFWPLVGYLAGKAAPDCIPLLRGLGAAKPSRDDLKALCAAFGTTSASPMLHIEGATPEAGLAPLETAETVTISLQDMAAAWSLLNDGPEEVQLVAIGSPHASLEECRALAAVFAGRKRRADVAVIVTAGQQVIDAAGKDGTLQSLKDSGVQVLPDLCWCSISEPVFPTKTRALMTNSGKYAHYGPGLSGRAVRFGSLADCVESALTGRAVSRLPVWLS	–	1160 ± 110	33.33 ± 2.77
